Assay results: US20240117034A1 (SHANGHAI JEMINCARE PHARMACEUTICAL, published 2024)

Columns and labels:
[1] = biological target: human GARP/human latent TGF-β1 complex on recombinant cells (293F-hGARP/hTGF-β1, CHOK1-hGARP/hTGF-β1) (human) (UniProt Q14392); assay: flow cytometry on 293F-hGARP/hTGF-β1 clone 2D3
[2] = biological target: human GARP/human latent TGF-β1 complex on recombinant cells (293F-hGARP/hTGF-β1, CHOK1-hGARP/hTGF-β1) (human) (UniProt Q14392); assay: flow cytometry on 293F-hGARP/hTGF-β1 clone 2F4
[3] = biological target: T1, human GARP/human latent TGF-β1 complex on recombinant cells (293F-hGARP/hTGF-β1, CHOK1-hGARP/hTGF-β1) (human, UniProt Q14392 20-662; P01137 30-390); assay: flow cytometry titration on 293F-hGARP/hTGF-β1 cells, Alexa 488 anti-mouse IgG secondary
T1 construct: whole, on cells; Both full-length proteins were co-expressed on 293F or CHOK1 cells; The host cell of each assay is named in the assay field; also called 293F-hGARP/hTGF-β1 complex; clones 2F4 and 2D3
T1 sequence (Q14392 20-662, chain 1 of 2): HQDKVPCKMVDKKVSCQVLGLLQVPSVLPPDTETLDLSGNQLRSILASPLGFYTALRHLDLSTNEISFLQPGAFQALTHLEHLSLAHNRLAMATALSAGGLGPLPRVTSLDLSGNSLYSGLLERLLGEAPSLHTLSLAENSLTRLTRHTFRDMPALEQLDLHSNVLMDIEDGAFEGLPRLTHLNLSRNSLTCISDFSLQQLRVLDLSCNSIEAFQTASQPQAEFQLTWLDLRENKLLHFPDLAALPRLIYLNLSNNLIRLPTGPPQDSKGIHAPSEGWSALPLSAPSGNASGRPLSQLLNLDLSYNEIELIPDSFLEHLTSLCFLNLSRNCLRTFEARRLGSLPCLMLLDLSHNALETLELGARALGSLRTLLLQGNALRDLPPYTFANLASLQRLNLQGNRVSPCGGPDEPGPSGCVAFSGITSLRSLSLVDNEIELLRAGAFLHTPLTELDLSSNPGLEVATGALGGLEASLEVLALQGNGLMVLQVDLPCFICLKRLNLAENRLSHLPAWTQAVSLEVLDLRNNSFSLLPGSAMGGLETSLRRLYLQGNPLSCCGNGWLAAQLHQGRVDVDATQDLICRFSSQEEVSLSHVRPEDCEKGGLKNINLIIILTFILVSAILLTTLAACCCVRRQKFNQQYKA
T1 sequence (P01137 30-390, chain 2 of 2): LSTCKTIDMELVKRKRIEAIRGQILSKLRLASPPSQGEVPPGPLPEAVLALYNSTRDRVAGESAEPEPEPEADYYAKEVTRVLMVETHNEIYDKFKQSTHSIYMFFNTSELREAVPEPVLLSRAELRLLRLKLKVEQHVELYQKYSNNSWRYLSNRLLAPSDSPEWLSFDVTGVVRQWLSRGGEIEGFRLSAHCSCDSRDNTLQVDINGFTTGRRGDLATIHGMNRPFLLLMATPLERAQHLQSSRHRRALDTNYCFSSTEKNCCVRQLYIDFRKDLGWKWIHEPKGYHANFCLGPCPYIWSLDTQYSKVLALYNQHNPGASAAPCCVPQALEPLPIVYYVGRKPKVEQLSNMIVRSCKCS
Experimental: The cells were counted and centrifuged at 300 g for 5 min, the supernatant was discarded, the cell pellet was resuspended and washed with 1×PBS, then centrifuged at 300 g for 5 min, the supernatant was discarded, and then the cell pellet was resuspended with FACS buffer containing 2% FBS to adjust to a density of 1e6 cells/mL. The cells were plated at a density of 1e5 cells/well for a constant volume of 100 μL/well at 4° C. for 0.5 h, and centrifuged at 300 g for 5 min, and the supernatant was discarded. The antibody to be tested was prepared in FACS buffer containing 2% FBS with a starting concentration of 15 µg/mL, followed by serial dilution with a dilution factor of 1:5 in a total of 7 gradients, and then was added for a constant volume of 100 μL/well, with 0 μg/mL as a control, the dilution was pipetted and mixed thoroughly at 4° C. for 1 h, and centrifuged at 300 g for 5 min, and the supernatant was discarded. 1×PBS was added for a constant volume of 200 μL/well to resuspend and mix the cell pellet thoroughly, followed by centrifugation at 300 g for 5 min, the supernatant was discarded, and the steps were repeated twice. […] The cell pellet was resuspended in FACS buffer containing 2% FBS to read on a FACS machine. […]

[4] = biological target: T1, human GARP/human latent TGF-β1 complex …; assay: flow cytometry competition on 293F-hGARP/hTGF-β1 cells; the competitor is Alexa 488-labelled MHG8 at a fixed concentration; falling curve
[5] = biological target: T2, hGARP/hTGF-β1 complex (Kactus Biosystems, Cat. No.: GAR-HM4TG) (human, UniProt Q14392 20-627; P01137 30-390, limits assumed); assay: Octet RED96e (BLI), antibody captured on AHC sensor, complex in solution from 100 nM, 1:1 model
T2 construct: Bought soluble recombinant complex; also called antigen (hGARP/hTGF-β1 complex)
T2 sequence (Q14392 20-627 limits assumed, chain 1 of 2): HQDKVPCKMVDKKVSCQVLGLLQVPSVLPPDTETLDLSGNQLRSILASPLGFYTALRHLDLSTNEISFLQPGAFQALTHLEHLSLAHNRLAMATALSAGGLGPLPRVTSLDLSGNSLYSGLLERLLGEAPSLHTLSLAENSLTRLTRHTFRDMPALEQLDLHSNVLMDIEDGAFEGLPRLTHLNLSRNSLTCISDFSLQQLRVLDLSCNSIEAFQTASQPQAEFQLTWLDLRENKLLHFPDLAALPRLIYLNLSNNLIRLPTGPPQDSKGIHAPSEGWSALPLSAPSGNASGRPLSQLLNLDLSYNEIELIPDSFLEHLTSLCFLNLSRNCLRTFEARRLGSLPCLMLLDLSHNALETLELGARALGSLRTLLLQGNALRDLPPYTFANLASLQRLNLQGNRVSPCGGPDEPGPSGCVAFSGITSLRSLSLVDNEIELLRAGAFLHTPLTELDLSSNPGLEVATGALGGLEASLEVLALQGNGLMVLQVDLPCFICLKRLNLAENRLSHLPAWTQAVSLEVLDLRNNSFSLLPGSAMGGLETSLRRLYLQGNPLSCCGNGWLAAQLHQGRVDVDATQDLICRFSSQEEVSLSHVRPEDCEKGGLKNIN
T2 sequence (P01137 30-390 limits assumed, chain 2 of 2): as the sequence (P01137 30-390, chain 2 of 2) above

Chain of human GARP/human latent TGF-β1 complex on recombinant cells (293F-hGARP/hTGF-β1, CHOK1-hGARP/hTGF-β1) (human) (Q14392 20-662, chain 1 of 2): as the sequence (Q14392 20-662, chain 1 of 2) above
Chain of human GARP/human latent TGF-β1 complex on recombinant cells (293F-hGARP/hTGF-β1, CHOK1-hGARP/hTGF-β1) (human) (P01137 30-390, chain 2 of 2, further chain): as the sequence (P01137 30-390, chain 2 of 2) above

**Q.** Which results are given for Isotype control-APC (antibody)?
**A.** Mean maximum fluorescence intensity (MFI) [1]: 103 MFI; Mean maximum fluorescence intensity (MFI) [2]: 90 MFI

**Q.** What does the source list for Isotype control-FITC (antibody)?
**A.** Mean maximum fluorescence intensity (MFI) [1]: 103 MFI; Mean maximum fluorescence intensity (MFI) [2]: 101 MFI

**Q.** How did the Mean maximum fluorescence intensity (MFI) [1] turn out when “anti-human GARP antibody-FITC (Enzo life science, ALX-804-867FI-0100)” was run?
**A.** 6960 MFI

**Q.** What about the Mean maximum fluorescence intensity (MFI) [2] of the same molecule?
**A.** 8370 MFI

**Q.** With “anti-human TGF-β1 antibody, Anti-LAP (TGF-β1) Antibody-APC (R&D Systems, FAB2463A)” as the molecule, how does the Mean maximum fluorescence intensity (MFI) [1] read?
**A.** 142000 MFI

**Q.** And the Mean maximum fluorescence intensity (MFI) [2]?
**A.** 150000 MFI

B1: murine anti-human GARP monoclonal antibody 8H2D7B3 (antibody, V domains shown)
VH: QVQLQQSGAELVRPGSSVKLSCKASGYTLSNYWMYWVKQRPIQGLEWIGSIAPSDSETHYNQKFKDRATVTVDKSSRIVYMQLSSLTSEDSAVYFCARGGFGYGSSHWYFDVWGTGTTVTVSS
VL: DIQMTQSSAYLSVSLGGRVTITCKASDHINKWLAWYQQKPGNAPRLLISGATSLETGIPSRFSGSGSGKDYTLSITGLQTEDVATYYCQQYWTTPYTFGGGTKLEIK
notes: Antibody purified from the hybridoma; It was detected with anti-mouse IgG, and mouse IgG1 served as isotype control; also called murine antibody 8H2D7B3
**Q.** B1 was tested. Which EC50 [3] did it give?
**A.** 0.108 µg/mL

**Q.** And the EC50 [4]?
**A.** 1.61 µg/mL

B2: MHG8 (anti-human GARP antibody) (antibody, V domains shown)
VH: QVQLKESGPGLVAPSQSLSITCTVSGFSLTGYGINWVRQPPGKGLEWLGMIWSDGSTDYNSVLTSRLRISKDNSNSQVFLKMNSLQVDDTARYYCARDRNYYDYDGAMDYWGQGTSVTVSS
VL: DIQVTQSSSYLSVSLGDRVTITCKASDHIKNWLAWYQQKPGIAPRLLVSGATSLEAGVPSRFSGSGSGKNFTLSITSLQTEDVATYYCQQYWSTPWTFGGGTTLEIR
**Q.** How did the EC50 [3] turn out when B2 was run?
**A.** 0.12 µg/mL

**Q.** What about the Kd [5] of the same molecule?
**A.** 0.205 nM

**Q.** And the koff [5]?
**A.** 2.85e-05 s⁻¹

**Q.** And the kon [5]?
**A.** 139000 M⁻¹ s⁻¹

**Q.** And the EC50 [4]?
**A.** 2.74 µg/mL
